From article PMC7327021

Molecular target: CTD1, C-terminal domain of major ampullate spidroin 1 of Latrodectus hesperus (Latrodectus hesperus)
Assay: non-reducing SDS-PAGE; non-reducing SDS-PAGE of fractions of the Ni-IMAC purification of CTD1; disulphide-linked dimer

Work on “CTD1, C-terminal domain of major ampullate spidroin 1 of Latrodectus hesperus (domain or fragment)” yielded a stoichiometry N of 2.
